Patent US20130143798A1 (Novo Nordisk, published 2013)
Numbered stars: 1 amine (or outer) side, 2 acyl side, 3 side chain; on linkers, the order of the positions; unused ones are H or OH. Square brackets hold non-standard residues; d marks the D form. Side chains are listed from the residue outwards. Ends that are not written are not given here. * marks the point of attachment. C18 diacid = O=C(O)CCCCCCCCCCCCCCCCC(=O)*; γGlu = O=C(O)[C@H](CCC(=O)[*:2])N[*:1]; AEEA = NCCOCCOCC(=O)O; Aib = CC(C)(N)C(=O)O

B1: N^ε16-([2-[2-[2-[[2-[2-[2-[[(4S)-5-hydroxy-4-[(18-hydroxy-18-oxooctadecanoyl)amino]-5-oxopentanoyl]amino]ethoxy]ethoxy]acetyl]amino]ethoxy]ethoxy]acetyl])[Aib^2 … (peptide)
peptide: H[Aib]QGTFTSDYSKYLDK([AEEA-AEEA-γGlu-C18 diacid])KRAQEFVQWLLNT-NH2
modifications: N-terminus assumed
SMILES: CC(C)C[C@H](NC(=O)[C@H](Cc1ccc(O)cc1)NC(=O)[C@H](CCCCN)NC(=O)[C@H](CO)NC(=O)[C@H](Cc1ccc(O)cc1)NC(=O)[C@H](CC(=O)O)NC(=O)[C@H](CO)NC(=O)[C@@H](NC(=O)[C@H](Cc1ccccc1)NC(=O)[C@@H](NC(=O)CNC(=O)[C@H](CCC(N)=O)NC(=O)C(C)(C)NC(=O)[C@@H](N)Cc1c[nH]cn1)[C@@H](C)O)[C@@H](C)O)C(=O)N[C@@H](CC(=O)O)C(=O)N[C@@H](CCCCNC(=O)COCCOCCNC(=O)COCCOCCNC(=O)CC[C@H](NC(=O)CCCCCCCCCCCCCCCCC(=O)O)C(=O)O)C(=O)N[C@@H](CCCCN)C(=O)N[C@@H](CCCNC(=N)N)C(=O)N[C@@H](C)C(=O)N[C@@H](CCC(N)=O)C(=O)N[C@@H](CCC(=O)O)C(=O)N[C@@H](Cc1ccccc1)C(=O)N[C@H](C(=O)N[C@@H](CCC(N)=O)C(=O)N[C@@H](Cc1c[nH]c2ccccc12)C(=O)N[C@@H](CC(C)C)C(=O)N[C@@H](CC(C)C)C(=O)N[C@@H](CC(N)=O)C(=O)N[C@H](C(N)=O)[C@@H](C)O)C(C)C
B2: N^ε24-([2-[2-[2-[[2-[2-[2-[[(4S)-5-hydroxy-4-[(18-hydroxy-18-oxooctadecanoyl)amino]-5-oxopentanoyl]amino]ethoxy]ethoxy]acetyl]amino]ethoxy]ethoxy]acetyl])[Lys^1 … (peptide)
peptide: HSQGTFTSDYSKYLDSKAAQEFVK([AEEA-AEEA-γGlu-C18 diacid])WLLNT-NH2
modifications: N-terminus assumed
SMILES: CC(C)C[C@H](NC(=O)[C@H](Cc1ccc(O)cc1)NC(=O)[C@H](CCCCN)NC(=O)[C@H](CO)NC(=O)[C@H](Cc1ccc(O)cc1)NC(=O)[C@H](CC(=O)O)NC(=O)[C@H](CO)NC(=O)[C@@H](NC(=O)[C@H](Cc1ccccc1)NC(=O)[C@@H](NC(=O)CNC(=O)[C@H](CCC(N)=O)NC(=O)[C@H](CO)NC(=O)[C@@H](N)Cc1c[nH]cn1)[C@@H](C)O)[C@@H](C)O)C(=O)N[C@@H](CC(=O)O)C(=O)N[C@@H](CO)C(=O)N[C@@H](CCCCN)C(=O)N[C@@H](C)C(=O)N[C@@H](C)C(=O)N[C@@H](CCC(N)=O)C(=O)N[C@@H](CCC(=O)O)C(=O)N[C@@H](Cc1ccccc1)C(=O)N[C@H](C(=O)N[C@@H](CCCCNC(=O)COCCOCCNC(=O)COCCOCCNC(=O)CC[C@H](NC(=O)CCCCCCCCCCCCCCCCC(=O)O)C(=O)O)C(=O)N[C@@H](Cc1c[nH]c2ccccc12)C(=O)N[C@@H](CC(C)C)C(=O)N[C@@H](CC(C)C)C(=O)N[C@@H](CC(N)=O)C(=O)N[C@H](C(N)=O)[C@@H](C)O)C(C)C
B3: N^ε28 ([2-[2-[2-[[2-[2-[2-[[(4S)-5-hydroxy-4-[(18-hydroxy-18-oxooctadecanoyl)amino]-5-oxopentanoyl]amino]ethoxy]ethoxy]acetyl]amino]ethoxy]ethoxy]acetyl]) … (peptide)
peptide: HSQGTFTSDYSKYLDSKRAQEFVQWLLK([AEEA-AEEA-γGlu-C18 diacid])T-NH2
modifications: N-terminus assumed
SMILES: CC(C)C[C@H](NC(=O)[C@H](Cc1ccc(O)cc1)NC(=O)[C@H](CCCCN)NC(=O)[C@H](CO)NC(=O)[C@H](Cc1ccc(O)cc1)NC(=O)[C@H](CC(=O)O)NC(=O)[C@H](CO)NC(=O)[C@@H](NC(=O)[C@H](Cc1ccccc1)NC(=O)[C@@H](NC(=O)CNC(=O)[C@H](CCC(N)=O)NC(=O)[C@H](CO)NC(=O)[C@@H](N)Cc1c[nH]cn1)[C@@H](C)O)[C@@H](C)O)C(=O)N[C@@H](CC(=O)O)C(=O)N[C@@H](CO)C(=O)N[C@@H](CCCCN)C(=O)N[C@@H](CCCNC(=N)N)C(=O)N[C@@H](C)C(=O)N[C@@H](CCC(N)=O)C(=O)N[C@@H](CCC(=O)O)C(=O)N[C@@H](Cc1ccccc1)C(=O)N[C@H](C(=O)N[C@@H](CCC(N)=O)C(=O)N[C@@H](Cc1c[nH]c2ccccc12)C(=O)N[C@@H](CC(C)C)C(=O)N[C@@H](CC(C)C)C(=O)N[C@@H](CCCCNC(=O)COCCOCCNC(=O)COCCOCCNC(=O)CC[C@H](NC(=O)CCCCCCCCCCCCCCCCC(=O)O)C(=O)O)C(=O)N[C@H](C(N)=O)[C@@H](C)O)C(C)C
B4: N^ε24-([2-[2-[2-[[2-[2-[2-[[(4S)-5-hydroxy-4-[(18-hydroxy-18-oxooctadecanoyl)amino]-5-oxopentanoyl]amino]ethoxy]ethoxy]acetyl]amino]ethoxy]ethoxy]acetyl]) … (peptide)
peptide: HSQGTFTSDYSKYLDSKRAQEFVK([AEEA-AEEA-γGlu-C18 diacid])WLLST-NH2
modifications: N-terminus assumed
SMILES: CC(C)C[C@H](NC(=O)[C@H](Cc1ccc(O)cc1)NC(=O)[C@H](CCCCN)NC(=O)[C@H](CO)NC(=O)[C@H](Cc1ccc(O)cc1)NC(=O)[C@H](CC(=O)O)NC(=O)[C@H](CO)NC(=O)[C@@H](NC(=O)[C@H](Cc1ccccc1)NC(=O)[C@@H](NC(=O)CNC(=O)[C@H](CCC(N)=O)NC(=O)[C@H](CO)NC(=O)[C@@H](N)Cc1c[nH]cn1)[C@@H](C)O)[C@@H](C)O)C(=O)N[C@@H](CC(=O)O)C(=O)N[C@@H](CO)C(=O)N[C@@H](CCCCN)C(=O)N[C@@H](CCCNC(=N)N)C(=O)N[C@@H](C)C(=O)N[C@@H](CCC(N)=O)C(=O)N[C@@H](CCC(=O)O)C(=O)N[C@@H](Cc1ccccc1)C(=O)N[C@H](C(=O)N[C@@H](CCCCNC(=O)COCCOCCNC(=O)COCCOCCNC(=O)CC[C@H](NC(=O)CCCCCCCCCCCCCCCCC(=O)O)C(=O)O)C(=O)N[C@@H](Cc1c[nH]c2ccccc12)C(=O)N[C@@H](CC(C)C)C(=O)N[C@@H](CC(C)C)C(=O)N[C@@H](CO)C(=O)N[C@H](C(N)=O)[C@@H](C)O)C(C)C
B5: N^ε25 … (peptide)
peptide: HSQGTFTSDYSKYLDSKRAQEFVQK([AEEA-AEEA-γGlu-C18 diacid])LLNT-NH2
modifications: N-terminus assumed
SMILES: CC(C)C[C@H](NC(=O)[C@H](Cc1ccc(O)cc1)NC(=O)[C@H](CCCCN)NC(=O)[C@H](CO)NC(=O)[C@H](Cc1ccc(O)cc1)NC(=O)[C@H](CC(=O)O)NC(=O)[C@H](CO)NC(=O)[C@@H](NC(=O)[C@H](Cc1ccccc1)NC(=O)[C@@H](NC(=O)CNC(=O)[C@H](CCC(N)=O)NC(=O)[C@H](CO)NC(=O)[C@@H](N)Cc1c[nH]cn1)[C@@H](C)O)[C@@H](C)O)C(=O)N[C@@H](CC(=O)O)C(=O)N[C@@H](CO)C(=O)N[C@@H](CCCCN)C(=O)N[C@@H](CCCNC(=N)N)C(=O)N[C@@H](C)C(=O)N[C@@H](CCC(N)=O)C(=O)N[C@@H](CCC(=O)O)C(=O)N[C@@H](Cc1ccccc1)C(=O)N[C@H](C(=O)N[C@@H](CCC(N)=O)C(=O)N[C@@H](CCCCNC(=O)COCCOCCNC(=O)COCCOCCNC(=O)CC[C@H](NC(=O)CCCCCCCCCCCCCCCCC(=O)O)C(=O)O)C(=O)N[C@@H](CC(C)C)C(=O)N[C@@H](CC(C)C)C(=O)N[C@@H](CC(N)=O)C(=O)N[C@H](C(N)=O)[C@@H](C)O)C(C)C
B6: N^ε24-([2-[2-[2-[[2-[2-[2-[[(4S)-5-hydroxy-4-[(18-hydroxy-18-oxooctadecanoyl)amino]-5-oxopentanoyl]amino]ethoxy]ethoxy]acetyl]amino]ethoxy]ethoxy]acetyl])[Glu^1 … (peptide)
peptide: HSQGTFTSDYSKYLDEKRAQEFVK([AEEA-AEEA-γGlu-C18 diacid])WLLNT-NH2
modifications: N-terminus assumed
SMILES: CC(C)C[C@H](NC(=O)[C@H](Cc1ccc(O)cc1)NC(=O)[C@H](CCCCN)NC(=O)[C@H](CO)NC(=O)[C@H](Cc1ccc(O)cc1)NC(=O)[C@H](CC(=O)O)NC(=O)[C@H](CO)NC(=O)[C@@H](NC(=O)[C@H](Cc1ccccc1)NC(=O)[C@@H](NC(=O)CNC(=O)[C@H](CCC(N)=O)NC(=O)[C@H](CO)NC(=O)[C@@H](N)Cc1c[nH]cn1)[C@@H](C)O)[C@@H](C)O)C(=O)N[C@@H](CC(=O)O)C(=O)N[C@@H](CCC(=O)O)C(=O)N[C@@H](CCCCN)C(=O)N[C@@H](CCCNC(=N)N)C(=O)N[C@@H](C)C(=O)N[C@@H](CCC(N)=O)C(=O)N[C@@H](CCC(=O)O)C(=O)N[C@@H](Cc1ccccc1)C(=O)N[C@H](C(=O)N[C@@H](CCCCNC(=O)COCCOCCNC(=O)COCCOCCNC(=O)CC[C@H](NC(=O)CCCCCCCCCCCCCCCCC(=O)O)C(=O)O)C(=O)N[C@@H](Cc1c[nH]c2ccccc12)C(=O)N[C@@H](CC(C)C)C(=O)N[C@@H](CC(C)C)C(=O)N[C@@H](CC(N)=O)C(=O)N[C@H](C(N)=O)[C@@H](C)O)C(C)C
B7: N^ε24-([2-[2-[2-[[2-[2-[2-[[(4S)-5-hydroxy-4-[(18-hydroxy-18-oxooctadecanoyl)amino]-5-oxopentanoyl]amino]ethoxy]ethoxy]acetyl]amino]ethoxy]ethoxy]acetyl])[Lys^1 … (peptide)
peptide: HSQGTFTSDYSKYLDSKRAQEFVK([AEEA-AEEA-γGlu-C18 diacid])WLLET-NH2
modifications: N-terminus assumed
SMILES: CC(C)C[C@H](NC(=O)[C@H](Cc1ccc(O)cc1)NC(=O)[C@H](CCCCN)NC(=O)[C@H](CO)NC(=O)[C@H](Cc1ccc(O)cc1)NC(=O)[C@H](CC(=O)O)NC(=O)[C@H](CO)NC(=O)[C@@H](NC(=O)[C@H](Cc1ccccc1)NC(=O)[C@@H](NC(=O)CNC(=O)[C@H](CCC(N)=O)NC(=O)[C@H](CO)NC(=O)[C@@H](N)Cc1c[nH]cn1)[C@@H](C)O)[C@@H](C)O)C(=O)N[C@@H](CC(=O)O)C(=O)N[C@@H](CO)C(=O)N[C@@H](CCCCN)C(=O)N[C@@H](CCCNC(=N)N)C(=O)N[C@@H](C)C(=O)N[C@@H](CCC(N)=O)C(=O)N[C@@H](CCC(=O)O)C(=O)N[C@@H](Cc1ccccc1)C(=O)N[C@H](C(=O)N[C@@H](CCCCNC(=O)COCCOCCNC(=O)COCCOCCNC(=O)CC[C@H](NC(=O)CCCCCCCCCCCCCCCCC(=O)O)C(=O)O)C(=O)N[C@@H](Cc1c[nH]c2ccccc12)C(=O)N[C@@H](CC(C)C)C(=O)N[C@@H](CC(C)C)C(=O)N[C@@H](CCC(=O)O)C(=O)N[C@H](C(N)=O)[C@@H](C)O)C(C)C
B8: N^α- ([Lys^17, Glu^21, Leu^27]Glucagonyl) … (peptide)
peptide: HSQGTFTSDYSKYLDSKRAQEFVQWLLNTK([AEEA-AEEA-γGlu-C18 diacid])-NH2
modifications: N-terminus assumed
SMILES: CC(C)C[C@H](NC(=O)[C@H](Cc1ccc(O)cc1)NC(=O)[C@H](CCCCN)NC(=O)[C@H](CO)NC(=O)[C@H](Cc1ccc(O)cc1)NC(=O)[C@H](CC(=O)O)NC(=O)[C@H](CO)NC(=O)[C@@H](NC(=O)[C@H](Cc1ccccc1)NC(=O)[C@@H](NC(=O)CNC(=O)[C@H](CCC(N)=O)NC(=O)[C@H](CO)NC(=O)[C@@H](N)Cc1c[nH]cn1)[C@@H](C)O)[C@@H](C)O)C(=O)N[C@@H](CC(=O)O)C(=O)N[C@@H](CO)C(=O)N[C@@H](CCCCN)C(=O)N[C@@H](CCCNC(=N)N)C(=O)N[C@@H](C)C(=O)N[C@@H](CCC(N)=O)C(=O)N[C@@H](CCC(=O)O)C(=O)N[C@@H](Cc1ccccc1)C(=O)N[C@H](C(=O)N[C@@H](CCC(N)=O)C(=O)N[C@@H](Cc1c[nH]c2ccccc12)C(=O)N[C@@H](CC(C)C)C(=O)N[C@@H](CC(C)C)C(=O)N[C@@H](CC(N)=O)C(=O)N[C@H](C(=O)N[C@@H](CCCCNC(=O)COCCOCCNC(=O)COCCOCCNC(=O)CC[C@H](NC(=O)CCCCCCCCCCCCCCCCC(=O)O)C(=O)O)C(N)=O)[C@@H](C)O)C(C)C

These binders were tested against glucagon receptor (UniProt P47871 26-477, limits assumed) (assay: cell-based or functional assay).
glucagon receptor, sequence (P47871 26-477 limits assumed): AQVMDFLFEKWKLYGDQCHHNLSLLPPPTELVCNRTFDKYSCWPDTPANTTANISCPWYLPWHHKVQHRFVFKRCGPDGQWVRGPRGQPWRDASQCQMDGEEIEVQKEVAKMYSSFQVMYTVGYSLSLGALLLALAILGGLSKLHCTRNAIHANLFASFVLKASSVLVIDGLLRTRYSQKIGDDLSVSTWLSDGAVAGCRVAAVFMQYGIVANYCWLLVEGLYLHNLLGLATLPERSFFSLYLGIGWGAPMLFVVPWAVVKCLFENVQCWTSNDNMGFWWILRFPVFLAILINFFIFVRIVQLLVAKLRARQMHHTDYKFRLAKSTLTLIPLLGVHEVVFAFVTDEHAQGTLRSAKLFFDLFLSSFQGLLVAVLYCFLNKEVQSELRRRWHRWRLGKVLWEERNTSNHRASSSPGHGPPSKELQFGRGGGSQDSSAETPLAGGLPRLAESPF

Assay (I) Glucagon [EC50] | Binder
0.019 nM | HSQGTFTSDYSKYLDSKKAQEFVK([AEEA-AEEA-γGlu-C18 diacid])WLLNT
0.007 nM | B1
0.033 nM | B2
0.003 nM | B3
0.007 nM | B4
0.012 nM | B5
0.015 nM | B6
0.003 nM | B7
0.017 nM | B8
